From patent publication US20150064134A1

Legend:
Test in all cases: cell-based or functional assay
Pim-1(h) (human) = Pim-1(h) (human) (UniProt P11309)
PTK5(h) (human) = PTK5(h) (human) (UniProt P42685)
Rsk4(h) (human) = Rsk4(h) (human) (UniProt Q9UK32)
EphB2(h) (human) = EphB2(h) (human) (UniProt P29323)
PKCδ(h) (human) = PKCδ(h) (human) (UniProt Q05655)
Axl(h) (human) = biological target: T1, Axl(h) (human) (UniProt P30530)
T1 sequence (looked up): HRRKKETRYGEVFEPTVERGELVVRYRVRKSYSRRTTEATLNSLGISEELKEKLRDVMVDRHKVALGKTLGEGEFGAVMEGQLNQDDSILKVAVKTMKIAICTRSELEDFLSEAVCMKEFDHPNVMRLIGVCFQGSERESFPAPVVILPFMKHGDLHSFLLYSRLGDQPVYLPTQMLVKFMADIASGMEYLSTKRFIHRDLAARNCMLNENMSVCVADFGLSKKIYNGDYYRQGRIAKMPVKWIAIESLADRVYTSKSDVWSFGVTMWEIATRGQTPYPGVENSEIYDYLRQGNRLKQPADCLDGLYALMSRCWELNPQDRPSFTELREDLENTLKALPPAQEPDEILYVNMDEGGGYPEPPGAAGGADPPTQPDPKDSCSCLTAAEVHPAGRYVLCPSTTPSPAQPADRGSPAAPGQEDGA

NEK11(h) (human) = biological target: T2, NEK11(h) (human) (UniProt Q8NG66)
T2 sequence (looked up): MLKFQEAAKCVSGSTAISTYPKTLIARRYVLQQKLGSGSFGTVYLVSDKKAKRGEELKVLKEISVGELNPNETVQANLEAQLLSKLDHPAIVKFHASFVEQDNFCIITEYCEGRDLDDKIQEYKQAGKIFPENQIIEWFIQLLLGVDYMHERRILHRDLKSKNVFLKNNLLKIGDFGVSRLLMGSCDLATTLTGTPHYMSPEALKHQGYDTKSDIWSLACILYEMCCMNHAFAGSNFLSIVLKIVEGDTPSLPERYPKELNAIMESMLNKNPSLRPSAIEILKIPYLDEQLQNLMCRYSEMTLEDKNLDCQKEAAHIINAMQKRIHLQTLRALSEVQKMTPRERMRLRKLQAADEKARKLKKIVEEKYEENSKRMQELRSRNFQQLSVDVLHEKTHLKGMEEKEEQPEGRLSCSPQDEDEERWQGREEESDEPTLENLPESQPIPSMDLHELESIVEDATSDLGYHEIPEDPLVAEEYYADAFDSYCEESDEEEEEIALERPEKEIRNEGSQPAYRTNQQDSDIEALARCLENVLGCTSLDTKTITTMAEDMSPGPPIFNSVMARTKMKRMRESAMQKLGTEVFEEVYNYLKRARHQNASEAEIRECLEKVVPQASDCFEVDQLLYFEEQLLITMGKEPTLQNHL

CaMKIV(h) (human) = CaMKIV(h) (human) (UniProt Q16566)
IR(h) (human) = IR(h) (human) (UniProt P06213)
Sequence of IR(h) (human) (P06213 1005-1310 limits assumed): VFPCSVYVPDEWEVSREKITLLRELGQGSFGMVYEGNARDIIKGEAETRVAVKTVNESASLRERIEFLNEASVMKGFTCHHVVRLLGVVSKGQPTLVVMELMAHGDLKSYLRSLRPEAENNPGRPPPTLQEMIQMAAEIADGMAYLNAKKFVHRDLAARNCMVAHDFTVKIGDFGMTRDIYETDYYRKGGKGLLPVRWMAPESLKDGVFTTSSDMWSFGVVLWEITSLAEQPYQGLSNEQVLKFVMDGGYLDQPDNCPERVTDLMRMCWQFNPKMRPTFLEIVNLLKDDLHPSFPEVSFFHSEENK

Flt4(h) (human) = Flt4(h) (human) (UniProt P35916)
Sequence of Flt4(h) (human) (P35916 800-1363 limits assumed): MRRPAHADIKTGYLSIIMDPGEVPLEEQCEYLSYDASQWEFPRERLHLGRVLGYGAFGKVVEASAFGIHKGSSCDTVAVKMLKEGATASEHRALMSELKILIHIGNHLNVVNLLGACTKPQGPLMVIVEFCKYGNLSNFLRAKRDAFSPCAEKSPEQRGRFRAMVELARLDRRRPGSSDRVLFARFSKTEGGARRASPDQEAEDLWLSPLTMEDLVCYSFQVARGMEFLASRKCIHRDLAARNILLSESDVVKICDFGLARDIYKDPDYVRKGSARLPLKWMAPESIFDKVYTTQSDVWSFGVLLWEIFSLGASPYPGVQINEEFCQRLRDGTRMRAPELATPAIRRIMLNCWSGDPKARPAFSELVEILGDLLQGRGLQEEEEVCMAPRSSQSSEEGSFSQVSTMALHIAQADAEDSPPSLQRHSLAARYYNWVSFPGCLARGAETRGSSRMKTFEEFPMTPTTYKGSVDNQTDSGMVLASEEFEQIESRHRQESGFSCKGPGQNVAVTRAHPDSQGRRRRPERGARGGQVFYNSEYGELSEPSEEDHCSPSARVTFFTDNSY

PKBβ(h) (human) = PKBβ(h) (human) (UniProt P31751)
PRAK(h) (human) = PRAK(h) (human) (UniProt Q8IW41)
Sequence of PRAK(h) (human) (Q8IW41 whole entry): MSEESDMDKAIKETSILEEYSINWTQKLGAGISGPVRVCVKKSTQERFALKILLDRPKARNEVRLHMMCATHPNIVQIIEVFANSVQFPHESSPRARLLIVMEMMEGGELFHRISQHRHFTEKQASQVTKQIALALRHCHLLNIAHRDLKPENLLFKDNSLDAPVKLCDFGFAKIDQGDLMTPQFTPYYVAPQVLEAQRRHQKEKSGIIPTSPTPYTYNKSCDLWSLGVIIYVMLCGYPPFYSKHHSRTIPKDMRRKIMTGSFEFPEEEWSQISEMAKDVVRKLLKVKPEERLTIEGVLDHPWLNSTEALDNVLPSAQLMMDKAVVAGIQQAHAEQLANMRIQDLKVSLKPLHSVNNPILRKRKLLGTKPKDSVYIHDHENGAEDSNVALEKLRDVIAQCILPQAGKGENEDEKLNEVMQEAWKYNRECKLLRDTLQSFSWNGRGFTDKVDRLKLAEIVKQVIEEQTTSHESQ

SAPK2a(T106M)(h) (human) = SAPK2a(T106M)(h) (human) (UniProt Q16539)
Sequence of SAPK2a(T106M)(h) (human) (Q16539 whole entry T106M): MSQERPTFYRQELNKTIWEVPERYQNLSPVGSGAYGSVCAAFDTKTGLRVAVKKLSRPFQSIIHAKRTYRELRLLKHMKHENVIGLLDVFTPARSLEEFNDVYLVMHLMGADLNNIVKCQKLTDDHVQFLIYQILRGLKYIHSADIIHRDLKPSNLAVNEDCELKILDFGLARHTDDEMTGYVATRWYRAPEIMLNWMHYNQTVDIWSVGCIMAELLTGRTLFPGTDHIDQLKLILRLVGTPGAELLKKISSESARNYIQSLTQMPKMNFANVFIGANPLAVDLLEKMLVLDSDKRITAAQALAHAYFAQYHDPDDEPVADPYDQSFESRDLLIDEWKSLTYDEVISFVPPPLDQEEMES

[1] = biological target: CDK7/cyclinH/MAT1(h) (human) (UniProt P50613)
Sequence of CDK7/cyclinH/MAT1(h) (human) (P50613 whole entry, chain 1 of 3): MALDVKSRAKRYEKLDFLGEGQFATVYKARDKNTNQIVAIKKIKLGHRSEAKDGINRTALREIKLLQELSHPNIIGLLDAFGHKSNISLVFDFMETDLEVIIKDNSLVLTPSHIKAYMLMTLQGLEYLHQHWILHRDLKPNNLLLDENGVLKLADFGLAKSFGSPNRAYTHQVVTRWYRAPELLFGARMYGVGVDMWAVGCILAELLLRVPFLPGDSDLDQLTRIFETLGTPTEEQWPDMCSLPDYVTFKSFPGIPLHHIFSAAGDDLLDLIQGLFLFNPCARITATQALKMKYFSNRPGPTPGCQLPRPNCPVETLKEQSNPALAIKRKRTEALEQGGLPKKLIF
Sequence of CDK7/cyclinH/MAT1(h) (human) (P51946 whole entry, chain 2 of 3, further chain): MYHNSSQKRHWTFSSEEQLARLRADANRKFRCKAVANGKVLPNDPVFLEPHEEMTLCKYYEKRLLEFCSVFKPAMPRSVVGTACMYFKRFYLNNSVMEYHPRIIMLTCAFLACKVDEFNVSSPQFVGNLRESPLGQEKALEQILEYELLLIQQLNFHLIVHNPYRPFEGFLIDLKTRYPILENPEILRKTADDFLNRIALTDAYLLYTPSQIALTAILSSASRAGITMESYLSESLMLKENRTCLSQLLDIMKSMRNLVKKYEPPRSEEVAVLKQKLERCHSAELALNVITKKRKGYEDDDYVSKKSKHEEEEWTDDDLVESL
Sequence of CDK7/cyclinH/MAT1(h) (human) (P51948 whole entry, chain 3 of 3, further chain): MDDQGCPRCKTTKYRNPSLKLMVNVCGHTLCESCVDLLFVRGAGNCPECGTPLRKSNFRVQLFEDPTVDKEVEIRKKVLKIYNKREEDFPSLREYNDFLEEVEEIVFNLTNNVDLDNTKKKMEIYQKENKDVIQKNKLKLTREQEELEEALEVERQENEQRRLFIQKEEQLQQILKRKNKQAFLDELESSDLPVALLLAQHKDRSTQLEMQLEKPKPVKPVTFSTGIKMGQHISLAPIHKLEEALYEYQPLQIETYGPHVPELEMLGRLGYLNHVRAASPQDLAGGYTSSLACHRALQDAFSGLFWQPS

PDGFRβ(h) (human) = PDGFRβ(h) (human) (UniProt P09619)
Sequence of PDGFRβ(h) (human) (P09619 557-1106 limits assumed): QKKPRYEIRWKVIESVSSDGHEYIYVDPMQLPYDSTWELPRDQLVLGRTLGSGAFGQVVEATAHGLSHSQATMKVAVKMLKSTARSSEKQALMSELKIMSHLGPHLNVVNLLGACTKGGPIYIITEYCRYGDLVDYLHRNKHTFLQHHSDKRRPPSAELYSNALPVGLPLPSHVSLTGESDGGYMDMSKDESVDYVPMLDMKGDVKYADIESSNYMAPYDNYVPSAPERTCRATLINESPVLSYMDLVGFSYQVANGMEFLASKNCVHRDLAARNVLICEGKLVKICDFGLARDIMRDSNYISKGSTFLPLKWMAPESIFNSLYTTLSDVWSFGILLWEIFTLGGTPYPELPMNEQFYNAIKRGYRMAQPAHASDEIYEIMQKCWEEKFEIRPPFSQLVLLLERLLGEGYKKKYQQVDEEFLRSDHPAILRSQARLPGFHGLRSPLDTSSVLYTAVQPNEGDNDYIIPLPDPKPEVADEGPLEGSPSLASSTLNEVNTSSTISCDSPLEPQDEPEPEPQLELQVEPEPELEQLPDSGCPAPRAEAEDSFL

LOK(h) (human) = LOK(h) (human) (UniProt O94804)
p70S6K(h) (human) = p70S6K(h) (human) (UniProt P23443)
Mnk2(h) (human) = Mnk2(h) (human) (UniProt Q9HBH9)
Met(h) (human) = Met(h) (human) (UniProt P08581)
Sequence of Met(h) (human) (P08581 956-1390 limits assumed): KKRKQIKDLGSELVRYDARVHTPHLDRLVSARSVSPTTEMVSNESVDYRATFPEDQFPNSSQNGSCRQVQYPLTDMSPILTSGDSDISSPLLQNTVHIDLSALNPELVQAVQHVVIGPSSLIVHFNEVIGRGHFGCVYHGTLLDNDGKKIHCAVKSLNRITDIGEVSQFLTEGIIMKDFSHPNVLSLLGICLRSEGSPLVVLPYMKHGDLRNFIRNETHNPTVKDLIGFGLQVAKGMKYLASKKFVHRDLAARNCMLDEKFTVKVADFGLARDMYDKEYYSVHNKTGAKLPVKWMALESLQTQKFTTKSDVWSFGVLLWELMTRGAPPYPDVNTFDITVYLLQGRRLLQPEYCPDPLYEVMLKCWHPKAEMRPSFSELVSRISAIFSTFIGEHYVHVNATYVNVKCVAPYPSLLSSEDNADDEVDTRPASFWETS

Lyn(h) (human) = Lyn(h) (human) (UniProt P07948)
WNK3(h) (human) = WNK3(h) (human) (UniProt Q9BYP7)
Ret(V804M)(h) (human) = biological target: T3, Ret(V804M)(h) (human) (UniProt P07949)
T3 sequence (looked up): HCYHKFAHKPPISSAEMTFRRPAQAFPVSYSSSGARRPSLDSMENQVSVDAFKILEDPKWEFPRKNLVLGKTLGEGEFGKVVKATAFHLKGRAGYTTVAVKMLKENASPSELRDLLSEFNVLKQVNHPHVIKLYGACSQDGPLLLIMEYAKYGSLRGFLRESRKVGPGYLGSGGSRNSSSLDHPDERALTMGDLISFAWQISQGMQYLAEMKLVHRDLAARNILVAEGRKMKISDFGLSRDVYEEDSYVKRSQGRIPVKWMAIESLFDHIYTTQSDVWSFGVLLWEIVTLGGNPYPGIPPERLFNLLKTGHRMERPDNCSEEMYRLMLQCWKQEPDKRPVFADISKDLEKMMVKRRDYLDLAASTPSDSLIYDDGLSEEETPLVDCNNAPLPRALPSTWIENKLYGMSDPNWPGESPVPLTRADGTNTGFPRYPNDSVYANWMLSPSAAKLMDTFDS

[2] = biological target: EGFR(T790M,L858R)(h) (human) (UniProt P00533)

Sequence of Rsk4(h) (human) (Q9UK32 whole entry): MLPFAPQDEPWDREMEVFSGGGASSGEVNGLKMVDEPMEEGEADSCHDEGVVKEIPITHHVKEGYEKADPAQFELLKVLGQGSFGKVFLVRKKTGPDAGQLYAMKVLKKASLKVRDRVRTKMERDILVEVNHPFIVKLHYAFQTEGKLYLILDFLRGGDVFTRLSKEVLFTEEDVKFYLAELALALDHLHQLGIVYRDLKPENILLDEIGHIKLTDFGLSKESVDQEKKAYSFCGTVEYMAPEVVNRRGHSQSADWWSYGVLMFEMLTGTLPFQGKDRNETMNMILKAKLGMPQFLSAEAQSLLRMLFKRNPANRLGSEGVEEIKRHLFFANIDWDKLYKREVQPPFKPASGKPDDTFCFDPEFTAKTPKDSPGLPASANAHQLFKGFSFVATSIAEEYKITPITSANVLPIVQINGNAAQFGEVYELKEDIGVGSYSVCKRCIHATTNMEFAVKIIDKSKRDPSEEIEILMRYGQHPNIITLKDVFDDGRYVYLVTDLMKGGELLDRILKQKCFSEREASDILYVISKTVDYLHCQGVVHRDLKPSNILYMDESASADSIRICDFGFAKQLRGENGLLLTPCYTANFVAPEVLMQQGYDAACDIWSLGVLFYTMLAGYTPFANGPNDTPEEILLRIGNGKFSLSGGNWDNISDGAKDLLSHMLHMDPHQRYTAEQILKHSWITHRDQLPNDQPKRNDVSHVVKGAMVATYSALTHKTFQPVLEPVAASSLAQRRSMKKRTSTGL
Sequence of EphB2(h) (human) (P29323 565-986 limits assumed): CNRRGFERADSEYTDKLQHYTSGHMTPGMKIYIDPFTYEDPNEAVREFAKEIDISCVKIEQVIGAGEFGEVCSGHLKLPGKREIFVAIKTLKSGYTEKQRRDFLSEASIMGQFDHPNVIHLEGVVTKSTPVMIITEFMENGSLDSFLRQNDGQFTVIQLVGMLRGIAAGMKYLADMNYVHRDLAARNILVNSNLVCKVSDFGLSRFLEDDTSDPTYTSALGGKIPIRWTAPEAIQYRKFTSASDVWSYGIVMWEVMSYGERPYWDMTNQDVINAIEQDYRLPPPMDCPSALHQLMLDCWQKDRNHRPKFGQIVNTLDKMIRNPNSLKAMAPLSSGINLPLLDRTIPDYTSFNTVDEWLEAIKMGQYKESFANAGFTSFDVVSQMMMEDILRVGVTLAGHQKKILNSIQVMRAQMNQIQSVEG

% activity at 100 µM (Pim-1(h) (human)) [%]	% activity at 100 µM (PTK5(h) (human)) [%]	% activity at 100 µM (Rsk4(h) (human)) [%]	% activity at 100 µM (EphB2(h) (human)) [%]	% activity at 100 µM (PKCδ(h) (human)) [%]	% activity at 100 µM (Axl(h) (human)) [%]	% activity at 100 µM (NEK11(h) (human)) [%]	% activity at 100 µM (CaMKIV(h) (human)) [%]	% activity at 100 µM (IR(h) (human)) [%]	% activity at 100 µM (Flt4(h) (human)) [%]	% activity at 100 µM (PKBβ(h) (human)) [%]	% activity at 100 µM (PRAK(h) (human)) [%]	% activity at 100 µM (SAPK2a(T106M)(h) (human)) [%]	% activity at 100 µM [1] [%]	% activity at 100 µM (PDGFRβ(h) (human)) [%]	% activity at 100 µM (LOK(h) (human)) [%]	% activity at 100 µM (p70S6K(h) (human)) [%]	% activity at 100 µM (Mnk2(h) (human)) [%]	% activity at 100 µM (Met(h) (human)) [%]	% activity at 100 µM (Lyn(h) (human)) [%]	Substance	also measured
8	132	90	18	101	52	53	17	96	83	84	128	97	65	81	37	35	89	65	69	MMI-0300 (peptide)	% activity at 100 µM (WNK3(h) (human)): 77%; % activity at 100 µM (Ret(V804M)(h) (human)): 95%; % activity at 100 µM [2]: 85%
7	129	91	22	90	41	33	18	85	89	98	118	99	47	53	18	33	86	62	3	MMI-0400 (peptide)	% activity at 100 µM (WNK3(h) (human)): 74%; % activity at 100 µM (Ret(V804M)(h) (human)): 87%; % activity at 100 µM [2]: 78%
0	96	29	70	61	12	2	-1	95	73	21	95	32	15	40	7	3	6	27	31	MMI-0500 (peptide)	% activity at 100 µM (WNK3(h) (human)): 9%; % activity at 100 µM (Ret(V804M)(h) (human)): 36%; % activity at 100 µM [2]: 53%
